# Reference: US20240018501A1, “HIGHER PERFORMANCE PROTEASES FOR SCARLESS PEPTIDE TAG REMOVAL” (priority 2017, published 2024)
# B1: His6-LicP-25-433 (protein)
# chain: GSSHHHHHHSQDPKEQAGEQYLLLEHVKDKSKLLDTAEQFHIHADVIEEIGFAKVTGEKQKLAPFTKKLAEKVGADVIEKPIANTAVNETESVISGSPAWGLDGILELKEYLWFAAKQTDSYRTYQIERGHPDVKVALIDSGLDLDHPDLKASVNTNGGWNYIDGKPVSGDPTGHGTQTAGMINIIAPDVTITPYQVLDEKGGDSYNIMKAMVDAVNDGHEVINISTGSYTSLDREGKVLMKAYQRAANYAAKHQVLVFSSAGNKGVNLDEMRKTENKVHLPSALKHVVSVGSNMKSNNISPYSNQGREIEFTAPGGYLGETYDQDGMVRVTDLVLTTYPKGKDNTALDQMLNIPKGYSLSYGTSLAAPQVAGTAALVISEYRERHHRKPSAKQVHHILRKSALDLGKPGKDVIYGYGEVRAYQALKMMNKE
# Legend:
# [1] = Storage and freeze-thaw stability of the proteases; format: physicochemical
# [2] = target: LicA2-D-5K
# [3] = target: DVNPE-Licβ
# [4] = target: LicA2-V-4L
# [5] = target: NisA-NDVNPE-I1K, P13068
# [6] = target: NisA-NDVNPE-I1G, P13068
# [7] = target: NisA-NDVNPE-I1C, P13068
# [8] = target: LicA2-E-1D
# [9] = target: linear G-LicA2
# [10] = target: NisA-NDVNPE-I1E, P13068
# [11] = target: NisA-NDVNPE, P13068
# [12] = target: NisA-NDVNPE-I1L, P13068
# [13] = target: Modified LicA2
# [14] = target: MBP-BamL
# [15] = target: LicA2-V-4A
# [16] = target: NisA-NDVNPE-I1T, P13068
# [17] = target: Linear LicA2
# [18] = target: NisA-NDVNPE-I1F, P13068
# [19] = target: LicA2-P-2A
# [20] = target: ProcA1.7-NDVNPE
# [21] = target: LicA2-N-3A
# [22] = target: LicA2-E-1Q
# [23] = target: LicA2-D-5A
# [24] = target: LicA2-E-1A
# [25] = target: NisA-NDVNPE-I1W, P13068
# [26] = target: His6-LicP-25-433-S376A
# [27] = target: LicA2-V-4F
# [28] = tested on: LicP; experiment: LicP self-cleavage and intermolecular cleavage (SDS-PAGE, MALDI-TOF MS); format: biochemical, Bacillus licheniformis ATCC 14580
# Description: Expression and purification of LicP and LicP mutant proteins. E. coli BL21 (DE3) cells were transformed with one of the following plasmids: pRSFDuet-1/LicP-25-433, pRSFDuet-1/LicP-25-433-S376A, pRSFDuet-1/LicP-25-433-H186A, pRSFDuet-1/LicP-25-433-E100A or pRSFDuet-1/LicP-25-433-E100A-E102A, and plated on an LB plate containing 50 mg/L kanamycin. A single colony was picked and grown in 20 mL of LB containing 50 mg/L kanamycin at 37° C. for 12 h and the resulting culture was inoculated into 2 L of LB containing 50 mg/L kanamycin. Cells were cultured at 37° C. until the OD at 600 nm reached 0.5, cooled and IPTG was added to a final concentration of 0.1 mM. The cells were cultured at 18° C. for another 10 h before harvesting. The cell pellet was resuspended on ice in LanP buffer (20 mM HEPES, 1 M NaCl, pH 7.5 at 25° C.) and lysed by homogenization. The lysed sample was centrifuged at 23,700×g for 30 min and the pellet was discarded. […] Protein concentration was quantified by the absorbance at 280 nm. The extinction coefficient for His6-LicP-25-433 was calculated as 46,300 M^−1 cm^−1. […]
# Intermolecular cleavage of His6-LicP-25-433-S376A by His6-LicP-25-433. […] The three reactions were allowed to proceed at room temperature for 0, 2, 4, 7 and 19 h before being stopped by addition of SDS loading buffer and boiling at 95° C. for 10 min and analyzed by SDS-PAGE.
# Chain of NisA-NDVNPE-I1E, P13068 (P13068 whole entry, looked up): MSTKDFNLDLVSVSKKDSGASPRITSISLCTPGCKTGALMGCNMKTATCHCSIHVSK
# Chain of NisA-NDVNPE-I1L, P13068 (P13068 whole entry, looked up): as above
# Chain of NisA-NDVNPE-I1W, P13068 (P13068 whole entry, looked up): as above
# Chain of NisA-NDVNPE, P13068 (P13068 whole entry, looked up): as above
# Chain of NisA-NDVNPE-I1K, P13068 (P13068 whole entry, looked up): as above
# Chain of NisA-NDVNPE-I1G, P13068 (P13068 whole entry, looked up): as above
# Chain of NisA-NDVNPE-I1C, P13068 (P13068 whole entry, looked up): as above
# Chain of NisA-NDVNPE-I1F, P13068 (P13068 whole entry, looked up): as above
# Chain of NisA-NDVNPE-I1T, P13068 (P13068 whole entry, looked up): as above
molecule,measurement,setting,value
B1,activity after multiple rounds of freeze-thaw,[1],no obvious decrease in activity
same,activity after storage,[1]; 12 weeks at 4° C,persistent activity
same,"time-dependent cleavage by LicP, gel-based assay (100 µM peptide, 0.4 µM LicP)",[2],LicA2-D-5A and LicA2-D-5K are processed much more slowly
same,"cleavage by LicP, MALDI-TOF MS",[3],the 5-residue oligopeptide was successfully removed
same,"time-dependent cleavage by LicP, gel-based assay (100 µM peptide, 0.4 µM LicP)",[4],still accepted by LicP with a slightly reduced cleavage efficiency
same,"Complete Reaction? (LicP cleavage; [LicP] 2 µM, [Substrate] 65 µM, 30 h at RT)",[5],N
same,"removal of the NisA leader peptide by LicP, MALDI-TOF MS",[5],"also accepted by LicP, although some substrate still remained after 30 hours of incubation"
same,"Complete Reaction? (LicP cleavage; [LicP] 2 µM, [Substrate] 65 µM, 30 h at RT)",[6],Y
same,"removal of the NisA leader peptide by LicP, MALDI-TOF MS",[6],"in front of a Gly or Ile residue was slightly less efficient, but complete consumption of precursor peptides was still observed"
same,"Complete Reaction? (LicP cleavage; [LicP] 0.2 µM, [Substrate] 65 µM, 20 h at RT)",[7],Y
same,"removal of the NisA leader peptide by LicP, MALDI-TOF MS",[7],The highest proteolytic efficiency was obtained when the P1′ position was occupied by Thr or Cys
same,"time-dependent cleavage by LicP, gel-based assay (100 µM peptide, 0.4 µM LicP)",[8],even substitution with structurally related amino acids Asp and Gln was not tolerated
same,"competitive MALDI-TOF MS assay (21 nM LicP, 17 µM each of modified LicA2 and linear G-LicA2)",[9],the cleavage of linear LicA2 only started after the modified LicA2 had been consumed and required more enzyme to be completed
same,"Complete Reaction? (LicP cleavage; [LicP] 2 µM, [Substrate] 65 µM, 30 h at RT)",[10],N
same,"removal of the NisA leader peptide by LicP, MALDI-TOF MS",[10],Peptides with Glu or Phe in the P1′ position turned out to be poor substrates
same,"Complete Reaction? (LicP cleavage; [LicP] 2 µM, [Substrate] 65 µM, 30 h at RT)",[11],Y
same,"removal of the NisA leader peptide by LicP, MALDI-TOF MS",[11],"in front of a Gly or Ile residue was slightly less efficient, but complete consumption of precursor peptides was still observed"
same,"Complete Reaction? (LicP cleavage; [LicP] 2 µM, [Substrate] 65 µM, 30 h at RT)",[12],N
same,"removal of the NisA leader peptide by LicP, MALDI-TOF MS",[12],"also accepted by LicP, although some substrate still remained after 30 hours of incubation"
same,"Complete Reaction? (LicP cleavage; [LicP] 21 nM, [Substrate] 17 µM, 10 min at RT)",[13],Y
same,"rate of cleavage in a competitive MALDI-TOF MS assay (21 nM LicP, 17 µM each of modified LicA2 and linear G-LicA2)",[13],"complete consumption of modified LicA2 peptide within 10 min, corresponding to a rate of at least 80 min^-1"
same,"Complete Reaction? (LicP cleavage; [LicP] 0.5 µM, [Substrate] 50 µM, 12 h at 4 C)",[14],Y
same,"removal of the MBP tag, SDS-PAGE time course, against TEV protease",[14],LicP was capable of removing the MBP-tag in front of the BamL protein with similar efficiency as TEV
same,"time-dependent cleavage by LicP, gel-based assay (100 µM peptide, 0.4 µM LicP)",[15],still accepted by LicP with a slightly reduced cleavage efficiency
same,"Complete Reaction? (LicP cleavage; [LicP] 0.2 µM, [Substrate] 65 µM, 20 h at RT)",[16],Y
same,"removal of the NisA leader peptide by LicP, MALDI-TOF MS",[16],The highest proteolytic efficiency was obtained when the P1′ position was occupied by Thr or Cys
same,"Complete Reaction? (LicP cleavage; [LicP] 1 µM, [Substrate] 290 µM, 6 h at RT)",[17],Y
same,"Complete Reaction? (LicP cleavage; [LicP] 2 µM, [Substrate] 65 µM, 30 h at RT)",[18],N
same,"removal of the NisA leader peptide by LicP, MALDI-TOF MS",[18],Peptides with Glu or Phe in the P1′ position turned out to be poor substrates
same,"time-dependent cleavage by LicP, gel-based assay (100 µM peptide, 0.4 µM LicP)",[19],alanine substitution at both sites did not alter the processing efficiency of LicP significantly
same,"Complete Reaction? (LicP cleavage; [LicP] 0.2 µM, [Substrate] 180 µM, 4 h at RT)",[20],Y
same,"time-dependent cleavage by LicP, gel-based assay (100 µM peptide, 0.4 µM LicP)",[21],alanine substitution at both sites did not alter the processing efficiency of LicP significantly
same,"time-dependent cleavage by LicP, gel-based assay (100 µM peptide, 0.4 µM LicP)",[22],even substitution with structurally related amino acids Asp and Gln was not tolerated
same,"time-dependent cleavage by LicP, gel-based assay (100 µM peptide, 0.4 µM LicP)",[23],LicA2-D-5A and LicA2-D-5K are processed much more slowly
same,"time-dependent cleavage by LicP, gel-based assay (100 µM peptide, 0.4 µM LicP)",[24],LicA2-E-1A was not a substrate under the assay conditions
same,"Complete Reaction? (LicP cleavage; [LicP] 2 µM, [Substrate] 65 µM, 30 h at RT)",[25],N
same,"removal of the NisA leader peptide by LicP, MALDI-TOF MS",[25],"also accepted by LicP, although some substrate still remained after 30 hours of incubation"
same,"intermolecular cleavage of the S376A mutant by wild type LicP, SDS-PAGE, 1:1, 0.1 mg/mL each",[26],"autoprotolysis can take place intermolecularly, albeit slowly"
same,"time-dependent cleavage by LicP, gel-based assay (100 µM peptide, 0.4 µM LicP)",[27],LicA2-V-4F was no longer processed
same,LicP self-cleavage during expression,[28],a cleavage event occurred
